This note sets out measurements from PMC5441903, “The E3 ligase ABI3-INTERACTING PROTEIN2 negatively regulates FUSCA3 and plays a role in cotyledon development in Arabidopsis thaliana” (Journal of Experimental Botany, 2017).

Changes are numbered by the printed parent chain.

The target in this experiment is T1, GST–FUS3 (Arabidopsis thaliana, UniProt Q9LW31 1-313).
T1 construct: FUSCA3 (FUS3), Arabidopsis thaliana, At3g26790; GST fusion of ~66 kDa, construct described in Lu et al. (2010); probably the whole FUS3; also called glutathione S-transferase (GST)–FUS3; source: recombinant, purified (glutathione resin)
T1 sequence (looked up): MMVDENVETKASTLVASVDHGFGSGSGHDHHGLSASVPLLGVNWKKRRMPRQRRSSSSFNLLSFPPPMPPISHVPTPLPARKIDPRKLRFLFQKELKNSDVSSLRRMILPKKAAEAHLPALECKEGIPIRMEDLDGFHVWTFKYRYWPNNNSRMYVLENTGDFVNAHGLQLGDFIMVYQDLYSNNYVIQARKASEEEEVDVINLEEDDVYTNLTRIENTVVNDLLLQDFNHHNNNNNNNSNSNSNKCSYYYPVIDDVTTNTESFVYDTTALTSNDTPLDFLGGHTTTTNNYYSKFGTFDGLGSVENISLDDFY
Nature of the experiment: pull-down; purified GST–FUS3 as bait, purified AIP2-6×His variants as prey; glutathione resin; immunoblots with anti-His and anti-GST. The following applies: both partners purified. In general terms: A western blot detects proteins with antibodies after separation by electrophoresis.

B1: FLAG-AIP2-6×His (natural protein, Arabidopsis thaliana, UniProt Q8RXD3 1-310, looked up)
chain: MDASSSPSPSEESLKLELDDLQKQLNKKLRFEASVCSIHNLLRDHYSSSSPSLRKQFYIVVSRVATVLKTRYTATGFWVAGLSLFEEAERLVSDASEKKHLKSCVAQAKEQLSEVDNQPTESSQGYLFEGHLTVDREPPQPQWLVQQNLMSAFASIVGGESSNGPTENTIGETANLMQELINGLDMIIPDILDDGGPPRAPPASKEVVEKLPVIIFTEELLKKFGAEAECCICKENLVIGDKMQELPCKHTFHPPCLKPWLDEHNSCPICRHELPTDDQKYENWKEREKEAEEERKGAENAVRGGEYMYV
notes: tagged protein of ~40 kDa; also called AIP2-His; source: cloned into pET28, purified (Ni-NTA-agarose)
Turning to B1, the binding result is given as “binds”.

B2: AIP2^(C/S,E/G)-6×His (inactive AIP2 variant) (natural protein, Arabidopsis thaliana, UniProt Q8RXD3 1-310, looked up)
chain: B1 chain with C230S, C231S, E235G
notes: ~40 kDa; Probably the same FLAG-...-6×His construct as m5 with the three mutations; source: recombinant, purified
Turning to B2, the binding result is “binds”.
